According to paper PMC4335062, “Data-Driven Prediction and Design of bZIP Coiled-Coil Interactions” (PLoS Computational Biology, 2015):
“And” between values parts separate entries of the source, which are not always exact repeats. Equal entries are not always repeated. One block for each binder: values may come before it. Where no end group is shown, it is not given here.

Key:
MAFB [1] = target: T1, MAFB (Homo sapiens, UniProt Q9Y5Q3); assay: FRET or BRET; direct-binding FRET in 384-well plates; rhodamine-labelled design (acceptor) titrated 0 to 1 uM into 10 nM fluorescein-labelled bZIP (donor); 150 mM KCl, 50 mM potassium phosphate pH 7.4, 0.1% Tween-20, 0.1% BSA; 4 °C
[2] = target: X-box binding protein 1 (human) (UniProt P17861); assay: as above
ATF5 (human) = ATF5 (human) (UniProt Q9Y2D1); assay: as above
ATF2 (human) = ATF2 (human) (UniProt P15336); assay: as above
JUN [3] = target: T2, JUN (Homo sapiens, UniProt P05412); assay: as above
MAF [4] = target: T3, MAF (Homo sapiens, UniProt O75444); assay: as above
ATF6B [5] = target: T4, ATF6B (Homo sapiens, UniProt Q99941); assay: as above
MAFF (human) [6] = target: MAFF (human) (UniProt Q9ULX9); assay: as above
MAFB [7] = target: T1, MAFB; assay: FRET or BRET; direct-binding FRET in 384-well plates; rhodamine-labelled design (acceptor) titrated 0 to 1 uM into 10 nM fluorescein-labelled bZIP (donor); 150 mM KCl, 50 mM potassium phosphate pH 7.4, 0.1% Tween-20, 0.1% BSA; 37 °C
BATF2 (human) = BATF2 (human) (UniProt Q8N1L9); assay: as above
BATF (human) = BATF (human) (UniProt Q16520); assay: as above
FOS [8] = target: T5, FOS (Homo sapiens, UniProt P01100); assay: as above
MAFF (human) [9] = target: MAFF (human) (UniProt Q9ULX9); assay: as above
ATF4 (human) [10] = target: ATF4 (human) (UniProt P18848); assay: FRET or BRET; direct-binding FRET in 384-well plates; rhodamine-labelled design (acceptor) titrated 0 to 1 uM into 10 nM fluorescein-labelled bZIP (donor); 150 mM KCl, 50 mM potassium phosphate pH 7.4, 0.1% Tween-20, 0.1% BSA; 23 °C
MAF [11] = target: T3, MAF; assay: as above
ATF6B [12] = target: T4, ATF6B; assay: as above
MAFF (human) [13] = target: MAFF (human) (UniProt Q9ULX9); assay: as above
[14] = target: off-target bZIPs of XBP1-d1 (among the 32 C-terminally fluoresceinated human bZIPs tested) (human); assay: FRET or BRET; direct-binding FRET at 37°C; 10 nM fluorescein-labelled bZIP (donor), rhodamine-labelled design (acceptor) titrated 0 to 1 μM; 150 mM KCl, 50 mM potassium phosphate pH 7.4, 0.1% Tween-20, 0.1% BSA
[15] = target: T6, X-box binding protein 1 (XBP1) bZIP construct, C-terminally fluoresceinated (human, UniProt P17861 70-133, fluorescein at the C-terminus); assay: as above; details: both partners purified
T6 construct: source: previously described, donated by A.W. Reinke [18]
T6 sequence (looked up): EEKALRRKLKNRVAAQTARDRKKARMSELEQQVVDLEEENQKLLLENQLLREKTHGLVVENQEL

FOS [16] = target: T5, FOS; assay: FRET or BRET; direct-binding FRET in 384-well plates; rhodamine-labelled design (acceptor) titrated 0 to 1 uM into 10 nM fluorescein-labelled bZIP (donor); 150 mM KCl, 50 mM potassium phosphate pH 7.4, 0.1% Tween-20, 0.1% BSA; 4 °C
[17] = target: Activating Transcription Factor (ATF) 3 (human) (UniProt P18847); assay: as above
DBP (human) = DBP (human) (UniProt Q10586); assay: as above
NFE2 (human) = NFE2 (human) (UniProt Q16621); assay: FRET or BRET; direct-binding FRET in 384-well plates; rhodamine-labelled design (acceptor) titrated 0 to 1 uM into 10 nM fluorescein-labelled bZIP (donor); 150 mM KCl, 50 mM potassium phosphate pH 7.4, 0.1% Tween-20, 0.1% BSA; 37 °C
CREB1 (human) = CREB1 (human) (UniProt P16220); assay: as above
[18] = target: X-box binding protein 1 (human) (UniProt P17861); assay: as above
NFE2L3 (human) = NFE2L3 (human) (UniProt Q9Y4A8); assay: as above
MAFG = MAFG (Homo sapiens, UniProt O15525); assay: as above
[19] = target: Activating Transcription Factor (ATF) 3 (human) (UniProt P18847); assay: as above
ATF6B [20] = target: T4, ATF6B; assay: as above
JUN [21] = target: T2, JUN; assay: FRET or BRET; direct-binding FRET in 384-well plates; rhodamine-labelled design (acceptor) titrated 0 to 1 uM into 10 nM fluorescein-labelled bZIP (donor); 150 mM KCl, 50 mM potassium phosphate pH 7.4, 0.1% Tween-20, 0.1% BSA; 23 °C
ATF4 (human) [22] = target: ATF4 (human) (UniProt P18848); assay: FRET or BRET; direct-binding FRET in 384-well plates; rhodamine-labelled design (acceptor) titrated 0 to 1 uM into 10 nM fluorescein-labelled bZIP (donor); 150 mM KCl, 50 mM potassium phosphate pH 7.4, 0.1% Tween-20, 0.1% BSA; 37 °C
JUN [23] = target: T2, JUN; assay: as above

T4 sequence (Q99941 whole entry): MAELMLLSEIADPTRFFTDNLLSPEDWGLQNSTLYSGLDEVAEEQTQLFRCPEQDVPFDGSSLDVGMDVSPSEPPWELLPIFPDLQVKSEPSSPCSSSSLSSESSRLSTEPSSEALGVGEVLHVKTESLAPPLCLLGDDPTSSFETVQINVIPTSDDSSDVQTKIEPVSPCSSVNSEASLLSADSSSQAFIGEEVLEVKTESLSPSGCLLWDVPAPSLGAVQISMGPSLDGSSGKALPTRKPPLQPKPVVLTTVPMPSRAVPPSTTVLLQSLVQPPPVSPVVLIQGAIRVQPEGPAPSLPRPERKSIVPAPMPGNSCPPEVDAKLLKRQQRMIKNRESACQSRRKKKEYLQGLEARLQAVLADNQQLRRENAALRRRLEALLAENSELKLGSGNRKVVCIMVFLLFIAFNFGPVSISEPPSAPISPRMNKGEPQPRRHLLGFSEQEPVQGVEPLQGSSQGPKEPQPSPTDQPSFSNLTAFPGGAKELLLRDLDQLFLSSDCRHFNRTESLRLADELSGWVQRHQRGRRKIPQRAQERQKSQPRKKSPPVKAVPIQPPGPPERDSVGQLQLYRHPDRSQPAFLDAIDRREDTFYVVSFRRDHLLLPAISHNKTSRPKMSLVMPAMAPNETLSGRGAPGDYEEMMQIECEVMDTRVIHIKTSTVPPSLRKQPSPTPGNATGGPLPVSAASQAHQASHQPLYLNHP
T2 sequence (P05412 whole entry): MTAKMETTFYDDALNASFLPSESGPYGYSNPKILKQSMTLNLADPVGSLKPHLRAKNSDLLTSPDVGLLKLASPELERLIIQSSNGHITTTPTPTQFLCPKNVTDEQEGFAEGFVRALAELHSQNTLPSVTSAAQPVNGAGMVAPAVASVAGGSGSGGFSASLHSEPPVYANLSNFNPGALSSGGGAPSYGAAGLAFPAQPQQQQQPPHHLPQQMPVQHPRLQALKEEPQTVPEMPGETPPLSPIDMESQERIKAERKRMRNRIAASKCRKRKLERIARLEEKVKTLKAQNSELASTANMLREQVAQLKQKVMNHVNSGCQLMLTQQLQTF
Chain of ATF4 (human) (P18848 whole entry): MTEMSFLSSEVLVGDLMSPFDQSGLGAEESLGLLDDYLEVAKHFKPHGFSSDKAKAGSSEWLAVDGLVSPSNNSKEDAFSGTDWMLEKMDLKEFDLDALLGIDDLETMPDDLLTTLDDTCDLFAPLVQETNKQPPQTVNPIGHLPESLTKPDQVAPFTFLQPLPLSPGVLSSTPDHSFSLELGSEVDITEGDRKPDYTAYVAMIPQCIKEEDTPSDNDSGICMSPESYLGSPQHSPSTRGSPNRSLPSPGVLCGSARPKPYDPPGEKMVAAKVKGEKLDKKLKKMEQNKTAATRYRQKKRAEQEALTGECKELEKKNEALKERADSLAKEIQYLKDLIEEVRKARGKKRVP
T5 sequence (P01100 whole entry): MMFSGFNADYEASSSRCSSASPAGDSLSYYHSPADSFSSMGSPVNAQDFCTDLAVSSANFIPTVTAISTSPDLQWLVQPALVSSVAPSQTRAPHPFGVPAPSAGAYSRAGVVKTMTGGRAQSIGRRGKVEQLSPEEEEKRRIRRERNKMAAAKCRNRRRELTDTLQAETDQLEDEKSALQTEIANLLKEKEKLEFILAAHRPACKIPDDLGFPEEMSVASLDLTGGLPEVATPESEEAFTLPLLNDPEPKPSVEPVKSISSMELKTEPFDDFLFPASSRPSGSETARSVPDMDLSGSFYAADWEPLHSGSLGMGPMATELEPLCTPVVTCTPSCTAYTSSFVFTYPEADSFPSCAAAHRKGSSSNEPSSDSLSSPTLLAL
Chain of MAFF (human) (Q9ULX9 whole entry): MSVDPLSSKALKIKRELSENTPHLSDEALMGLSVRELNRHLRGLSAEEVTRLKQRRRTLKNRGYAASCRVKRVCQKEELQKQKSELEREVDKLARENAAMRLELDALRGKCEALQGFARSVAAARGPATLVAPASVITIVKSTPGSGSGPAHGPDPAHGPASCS
Chain of ATF5 (human) (Q9Y2D1 whole entry): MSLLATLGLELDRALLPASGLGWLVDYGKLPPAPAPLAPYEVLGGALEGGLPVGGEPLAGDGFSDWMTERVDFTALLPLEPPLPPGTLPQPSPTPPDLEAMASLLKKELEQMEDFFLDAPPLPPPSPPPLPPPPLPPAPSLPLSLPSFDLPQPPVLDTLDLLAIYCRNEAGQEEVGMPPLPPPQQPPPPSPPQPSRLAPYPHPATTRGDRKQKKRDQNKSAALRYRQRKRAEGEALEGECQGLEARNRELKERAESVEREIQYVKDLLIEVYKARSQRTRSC
Chain of Activating Transcription Factor (ATF) 3 (human) (P18847 whole entry): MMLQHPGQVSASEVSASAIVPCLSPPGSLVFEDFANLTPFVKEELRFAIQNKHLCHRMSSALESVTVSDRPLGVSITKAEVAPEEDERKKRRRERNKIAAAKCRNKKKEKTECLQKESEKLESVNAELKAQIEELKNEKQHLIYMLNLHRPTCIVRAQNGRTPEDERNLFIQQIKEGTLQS
T3 sequence (O75444 whole entry): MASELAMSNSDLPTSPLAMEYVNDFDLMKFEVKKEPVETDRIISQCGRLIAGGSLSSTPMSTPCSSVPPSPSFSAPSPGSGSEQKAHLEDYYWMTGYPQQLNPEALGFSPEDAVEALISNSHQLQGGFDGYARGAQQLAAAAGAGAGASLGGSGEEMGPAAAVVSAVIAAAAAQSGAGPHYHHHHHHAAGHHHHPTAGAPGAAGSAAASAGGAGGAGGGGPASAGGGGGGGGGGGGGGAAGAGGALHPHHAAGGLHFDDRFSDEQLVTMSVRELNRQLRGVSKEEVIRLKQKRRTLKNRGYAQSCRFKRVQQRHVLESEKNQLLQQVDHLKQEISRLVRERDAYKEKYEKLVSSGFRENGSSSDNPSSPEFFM
Chain of X-box binding protein 1 (human) (P17861 whole entry): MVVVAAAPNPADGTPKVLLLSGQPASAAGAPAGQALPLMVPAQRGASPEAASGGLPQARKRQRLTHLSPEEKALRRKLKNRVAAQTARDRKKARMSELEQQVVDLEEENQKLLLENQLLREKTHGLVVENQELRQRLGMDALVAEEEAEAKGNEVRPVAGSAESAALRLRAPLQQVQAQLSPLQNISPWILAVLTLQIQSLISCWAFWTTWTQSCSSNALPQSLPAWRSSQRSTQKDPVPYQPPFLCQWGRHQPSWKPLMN
T1 sequence (Q9Y5Q3 whole entry): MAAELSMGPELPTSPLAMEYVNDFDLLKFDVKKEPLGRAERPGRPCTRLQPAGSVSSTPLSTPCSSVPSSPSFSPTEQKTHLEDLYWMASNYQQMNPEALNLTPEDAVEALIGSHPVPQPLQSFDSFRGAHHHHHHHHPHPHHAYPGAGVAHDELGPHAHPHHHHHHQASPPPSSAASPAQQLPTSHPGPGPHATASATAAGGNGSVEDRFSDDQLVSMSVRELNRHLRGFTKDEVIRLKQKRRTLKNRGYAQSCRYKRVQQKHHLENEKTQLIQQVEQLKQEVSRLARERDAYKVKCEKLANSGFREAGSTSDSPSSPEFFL
Chain of MAFG (O15525 whole entry): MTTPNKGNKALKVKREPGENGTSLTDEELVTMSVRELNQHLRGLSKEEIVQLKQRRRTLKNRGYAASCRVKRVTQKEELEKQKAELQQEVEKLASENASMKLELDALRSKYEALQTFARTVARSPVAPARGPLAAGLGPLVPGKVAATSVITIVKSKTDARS
Chain of ATF2 (human) (P15336 whole entry): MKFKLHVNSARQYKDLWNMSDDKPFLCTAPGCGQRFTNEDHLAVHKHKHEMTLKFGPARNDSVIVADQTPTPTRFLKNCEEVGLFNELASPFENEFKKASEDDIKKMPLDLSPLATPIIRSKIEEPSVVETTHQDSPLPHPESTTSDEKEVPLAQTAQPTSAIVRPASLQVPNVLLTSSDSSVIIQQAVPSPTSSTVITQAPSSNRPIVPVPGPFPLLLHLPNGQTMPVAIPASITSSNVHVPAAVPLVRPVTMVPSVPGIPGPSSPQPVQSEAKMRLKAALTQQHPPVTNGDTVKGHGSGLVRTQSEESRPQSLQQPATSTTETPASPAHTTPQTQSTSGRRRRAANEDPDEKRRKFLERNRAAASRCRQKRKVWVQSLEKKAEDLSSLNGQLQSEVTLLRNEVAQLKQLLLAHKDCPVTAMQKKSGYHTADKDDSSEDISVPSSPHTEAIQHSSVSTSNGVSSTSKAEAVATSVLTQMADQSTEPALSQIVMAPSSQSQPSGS
Chain of CREB1 (human) (P16220 whole entry): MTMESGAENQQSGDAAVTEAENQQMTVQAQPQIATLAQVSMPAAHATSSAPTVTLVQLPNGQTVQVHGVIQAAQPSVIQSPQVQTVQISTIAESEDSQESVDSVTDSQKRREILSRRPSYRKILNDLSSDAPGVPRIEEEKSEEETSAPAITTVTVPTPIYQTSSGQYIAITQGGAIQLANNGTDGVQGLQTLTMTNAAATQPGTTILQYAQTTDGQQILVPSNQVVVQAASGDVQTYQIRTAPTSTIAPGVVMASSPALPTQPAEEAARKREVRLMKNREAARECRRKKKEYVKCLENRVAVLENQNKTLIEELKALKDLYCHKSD
Chain of DBP (human) (Q10586 whole entry): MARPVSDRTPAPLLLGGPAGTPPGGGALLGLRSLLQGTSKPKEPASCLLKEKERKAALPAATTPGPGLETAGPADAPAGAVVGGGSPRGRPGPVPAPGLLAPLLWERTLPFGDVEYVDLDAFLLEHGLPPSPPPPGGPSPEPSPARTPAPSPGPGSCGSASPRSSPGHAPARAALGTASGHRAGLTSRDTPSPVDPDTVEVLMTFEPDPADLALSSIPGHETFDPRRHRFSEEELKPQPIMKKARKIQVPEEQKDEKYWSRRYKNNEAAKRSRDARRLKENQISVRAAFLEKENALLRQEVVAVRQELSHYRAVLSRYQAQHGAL
Chain of BATF (human) (Q16520 whole entry): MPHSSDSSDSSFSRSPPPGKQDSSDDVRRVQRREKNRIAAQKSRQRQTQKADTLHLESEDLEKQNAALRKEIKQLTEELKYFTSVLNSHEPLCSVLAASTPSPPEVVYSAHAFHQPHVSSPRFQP

- Kd (MAFB [1]): > 5 µM
- Kd [2]: > 5 µM
- Kd (ATF5 (human)): 2.9 nM and 6.9 nM
- Kd (ATF2 (human)): > 5 µM
- Kd (JUN [3]): > 5 µM
- Kd (MAF [4]): > 5 µM
- Kd (ATF6B [5]): > 5 µM
- Kd (MAFF (human) [6]): > 5 µM
- Kd (MAFB [7]): > 5 µM
- Kd (BATF2 (human)): > 5 µM
- Kd (BATF (human)): > 5 µM
- Kd (FOS [8]): > 5 µM
- Kd (MAFF (human) [9]): 116 nM
- Kd (ATF4 (human) [10]): 8.5 nM
- Kd (MAF [11]): > 5 µM
- Kd (ATF6B [12]): > 5 µM
- Kd (MAFF (human) [13]): > 5 µM
B1: ATF5-d1 labeled at the N-terminus (designed binder)
chain: GESKEYKKGSGSC(Rhodamine Red C2‑maleimide)GKRIAYLRQRIAELRNENHVLESRIQRMEKEKDALQQDRDHLEYEL

- Kd [14]: > 5 µM
- Kd [15]: 172 ± 65 nM
B2: XBP1-d1, rhodamine-labelled at the C-terminus (designed binder)
chain: GESKEYKKGSGSEREAQLENRVAHLKEKNQELKAQNLHLKEALSEAQNRNQELKNDAGC(Rhodamine Red C2‑maleimide)
notes: solubility linker after the His tag; added at the C-terminus for labelling; built from heptads of native and previously designed bZIPs; source: E. coli RP3098, purified (Ni-NTA under denaturing conditions, reverse-phase HPLC)

- Kd (FOS [16]): > 5 µM
- Kd [17]: > 5 µM
- Kd (DBP (human)): > 5 µM
- Kd (NFE2 (human)): > 5 µM
- Kd (CREB1 (human)): > 5 µM
- Kd [18]: > 5 µM
- Kd (NFE2L3 (human)): > 5 µM
- Kd (MAFG): > 5 µM
- Kd (FOS [8]): > 5 µM
- Kd [19]: > 5 µM
- Kd (ATF6B [20]): > 5 µM
- Kd (MAFF (human) [9]): > 5000 nM
- Kd (JUN [21]): 1.1 nM and 1.2 nM and 1 nM
- Kd (ATF4 (human) [22]): 557 nM and 529 nM and 543 nM
- Kd (JUN [23]): 5.3 nM and 5.5 nM and 6.6 nM
B3: JUN-d1 labeled at the C-terminus (designed binder)
chain: GESKEYKKGSGSSIAATLEKEEANLEKMNKKLAAEIESLLKEKDKLESVLNYHEGC
modifications: also: Cys56: Rhodamine Red C2-maleimide or fluorescein-5-maleimide, by assay
